Reference: the supplement of paper PMC10724198
± gives the standard deviation of the averaged measurements.

test system: Saccharomyces cerevisiae; assay: protein stability index of tFT-peptide fusion (C-terminal peptide) (PSI (0-1 scale)); higher = more stable (slower turnover); details: genetic background: wild type; temperature: 30 C
Procedure: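 Multiplexed protein stability (MPS) profiling in S. cerevisiae. Random 12-aa peptides (tFT-X12 library) are fused to the C-terminus of a sfGFP-mCherry tandem fluorescent timer, after mCherry and a GGGS linker. Cells are FACS-sorted into 8 mCherry/sfGFP bins and deep-sequenced. The protein stability index (PSI) is the read-weighted bin average, scaled from 0 (unstable) to 1 (stable). Only peptides with >10 reads are reported; cells were grown at 30 °C in SC-His with glucose.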
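Also: PSI is a weighted mean of sequencing reads over stability bins, variants kept only with over 10 reads, mCherry proximal and sfGFP distal, peptide attached via GGGS linker.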

KTHKKRYRKGNT and KTKKENGRGEKN are within error of each other in protein stability index: 0.725 ± 0.12 for the first, 0.697 ± 0.04 for the second.

KTKKIWKKKSNI and KTKRMKSIKKSK are within error of each other in protein stability index: 0.713 ± 0.011 for the first, 0.7099 ± 0.0046 for the second.

KTNLSNRKKHKG and KTRTGMWDEQGV are within error of each other in protein stability index: 0.653 ± 0.051 for the first, 0.701 ± 0.016 for the second.

Compared with KTTSRIKEIIQK, KVEQLPAREAPC is higher in protein stability index: 0.606 ± 0.017 for the first, 0.6556 ± 0.0039 for the second.

KVFHTDSNPNNK and KVGKRQGFSVYV are within error of each other in protein stability index: 0.663 ± 0.016 for the first, 0.684 ± 0.022 for the second.

Compared with KVLRKQRLKGRE, KVMSLACRLTSE is higher in protein stability index: 0.5238 ± 0.0015 for the first, 0.843 ± 0.11 for the second.

KVPNEIKRYVFI and KYIGHSENATSK are within error of each other in protein stability index: 0.66446 ± 8.8e-05 for the first, 0.71 ± 0.067 for the second.

KYKVGLWHRVAK and LADFGREKNSLG are within error of each other in protein stability index: 0.68 ± 0.16 for the first, 0.703 ± 0.0068 for the second.

LADLSAPAPCLP and LAGLNDSVRRAV are within error of each other in protein stability index: 0.689 ± 0.091 for the first, 0.749 ± 0.036 for the second.

LAGLRLPNDLGP and LAGSHSRTQGRT are within error of each other in protein stability index: 0.712 ± 0.059 for the first, 0.695 ± 0.037 for the second.

LAGVSSPLPPPP and LAPALSHSPPLT are within error of each other in protein stability index: 0.685 ± 0.025 for the first, 0.715 ± 0.078 for the second.

LARGGAAIGGES and LAVPPSLPPPTR are within error of each other in protein stability index: 0.729 ± 0.086 for the first, 0.7254 ± 0.0063 for the second.

LCDLGLMLFPFV and LCFGGLVLFSFG are within error of each other in protein stability index: 0.666 ± 0.032 for the first, 0.601 ± 0.035 for the second.

Going from LCGAVVEGGGEE to LCLFSVRPARLL, the protein stability index rises from 0.5743 ± 0.004 to 0.753 ± 0.13.

LCLGVLRSDCVV and LCLREPTITTQW are within error of each other in protein stability index: 0.675 ± 0.011 for the first, 0.786 ± 0.3 for the second.

Going from LCPPPRPPRSHL to LCSRICGVVARA, the protein stability index falls from 0.941 ± 0.039 to 0.613 ± 0.042.

Compared with LCVVRGLLCSPL, LDAMNTSWYVKM is higher in protein stability index: 0.628 ± 0.0092 for the first, 0.676 ± 0.025 for the second.

Compared with LDARYRSSVGFK, LDGAGFLLSWYH is higher in protein stability index: 0.68876 ± 0.00018 for the first, 0.749 ± 0.013 for the second.

Compared with LDGIKVKFRRSL, LDKGNQDHEWTR is lower in protein stability index: 0.698 ± 0.013 for the first, 0.654 ± 0.023 for the second.

LDLAMRQYDLTG and LDSGSVYMSRDI are within error of each other in protein stability index: 0.681 ± 0.06 for the first, 0.652 ± 0.015 for the second.

LDSRSELGRGLK and LDVFPVWSDANA are the same in protein stability index: 0.714 ± 0.018 for the first, 0.714 ± 0.031 for the second.

LEGGAGRPDGTG and LEGILFGPKIAT are within error of each other in protein stability index: 0.671 ± 0.047 for the first, 0.6227 ± 0.0049 for the second.

LEHPAHPTKLQL and LEKKRRKNKKEG are within error of each other in protein stability index: 0.7067 ± 0.0033 for the first, 0.787 ± 0.14 for the second.

Compared with LEMTGGACGGGK, LEPGSYRKRKPP is lower in protein stability index: 0.675 ± 0.029 for the first, 0.587 ± 0.023 for the second.

First: LERKRKYSPHDQ
Second: LERSSHRTEFLS
The protein stability index of the first is higher: 0.677 ± 0.025 for the first, 0.587 ± 0.032 for the second.

LEYLGFSLSGFR and LFAAPARTSAPC are within error of each other in protein stability index: 0.724 ± 0.016 for the first, 0.779 ± 0.055 for the second.

LFCVAPLGSVSY and LFFGVACSWFSV are within error of each other in protein stability index: 0.652 ± 0.033 for the first, 0.621 ± 0.013 for the second.

Compared with LFGFLGVAACVV, LFHAPLFPPSSF is higher in protein stability index: 0.483 ± 0.048 for the first, 0.657 ± 0.04 for the second.

First: LFLEGWIRKGVR
Second: LFLPLPRCHALP
The protein stability index of the first is higher: 0.7427 ± 0.0059 for the first, 0.7037 ± 0.0066 for the second.

LFLSLSGSYRCI and LFPLSSPFPSTS are within error of each other in protein stability index: 0.532 ± 0.079 for the first, 0.766 ± 0.23 for the second.

Going from LFPPPPSPLGHS to LFPYPPASALLR, the protein stability index falls from 0.75227 ± 0.00052 to 0.662 ± 0.019.

Compared with LFSLFFPTCFRF, LFSPPTFFLFHR is higher in protein stability index: 0.557 ± 0.0092 for the first, 0.6445 ± 0.0046 for the second.

LFSSLNLFSSRD and LFVEFFACRSFN are within error of each other in protein stability index: 0.7355 ± 0.0033 for the first, 0.722 ± 0.011 for the second.

First: LFVSLLGAFVVG
Second: LFYFPVLSGFLA
The protein stability index of the first is lower: 0.529 ± 0.03 for the first, 0.578 ± 0.002 for the second.

LGAHRPLLSVLH and LGFPSFFPNVSV are within error of each other in protein stability index: 0.661 ± 0.037 for the first, 0.6946 ± 0.0017 for the second.

LGGGAGAPPSHW and LGGPGAVWGRGR are within error of each other in protein stability index: 0.7 ± 0.024 for the first, 0.697 ± 0.0084 for the second.

LGGWVGGRGVRG and LGIGTWGHRGDD are within error of each other in protein stability index: 0.717 ± 0.096 for the first, 0.712 ± 0.015 for the second.

Going from LGLSTLLVPHTR to LGNPVLRFILEK, the protein stability index falls from 0.743 ± 0.028 to 0.597 ± 0.094.

LGPLILDGATDC and LGQWGGGLSGSV are within error of each other in protein stability index: 0.688 ± 0.11 for the first, 0.685 ± 0.033 for the second.

LGRGEVWYIDRG and LGRRHAYGSALS are within error of each other in protein stability index: 0.696 ± 0.017 for the first, 0.708 ± 0.12 for the second.

LGSAIQGFLILT gave a protein stability index of 0.5996 ± 0.0017.
